Source: patent US20200024330A1

Experiments:
Assay in all cases: cell-based or functional assay
[1] = target: HIV-1 Env of isolate MG RM-AG-012 (HIV-1)
[2] = target: HIV-1 Env of isolate MG RM-D-001 (subtype D) (HIV-1)
[3] = target: HIV-1 Env of isolate MG RM-D-002 (subtype D) (HIV-1)
[4] = target: HIV-1 Env of isolate MG RM-D-018 (subtype D) (HIV-1)
[5] = target: HIV-1 Env of isolate MGRM-C-008 (pseudovirus) (HIV-1 isolate MGRM-C-008, subtype C)
[6] = target: HIV-1 Env of isolate MGRM-C-009 (pseudovirus) (HIV-1 isolate MGRM-C-009, subtype C)
[7] = target: HIV-1 JR-CSF Env F468A (HIV-1 (isolate JR-CSF)) (UniProt P20871)
[8] = target: HIV-1 JR-CSF Env L179A (HIV-1 (isolate JR-CSF)) (UniProt P20871)
[9] = target: HIV-1 JR-CSF Env Y177A (HIV-1 (isolate JR-CSF)) (UniProt P20871)
[10] = target: HIV-1 MGRM-Chronic-B-004 Env (pseudovirus) (HIV-1)
[11] = target: HIV-1 MGRM-Chronic-B-011 Env (pseudovirus) (HIV-1)
[12] = target: HIV-1 MGRM-Chronic-B-018 Env (pseudovirus) (HIV-1)
[13] = target: HIV-1 MGRM-D-018 envelope glycoprotein (Env) on pseudovirus (HIV-1)
[14] = target: HIV-1 PVO.4 Env (pseudovirus) (HIV-1)
[15] = target: HIV-1 Env of isolate MGRM-G-009 (subtype G) (HIV-1)
[16] = target: HIV-1 Env of isolate MGRM-G-015 (subtype G) (HIV-1)
[17] = target: HIV-1 Env of isolate 92WR021 (HIV-1)
[18] = target: HIV-1 Env of isolate 94KE105 (subtype AC), on pseudovirus (HIV-1)
[19] = target: HIV-1 Env of isolate APV-13 (pseudovirus) (HIV-1 isolate APV-13, subtype B)
[20] = target: HIV-1 Env of isolate CAAN.A2 (HIV-1)
[21] = target: HIV-1 Env of isolate CMU02 (CRF01_AE), on pseudovirus (HIV-1)
[22] = target: HIV-1 Env of isolate MGRM-A-008 (clade A), on pseudovirus (HIV-1)
[23] = target: HIV-1 Env of isolate MGRM-AG-011 (CRF_AG), on pseudovirus (HIV-1)
[24] = target: HIV-1 Env of isolate MGRM-C-015 (HIV-1)
[25] = target: HIV-1 Env of isolate MGRM-C-022 (HIV-1)
[26] = target: HIV-1 Env of isolate MGRM-C-023 (HIV-1)
[27] = target: HIV-1 Env of isolate MGRM-C-024 (HIV-1)
[28] = target: HIV-1 Env of isolate MGRM-D-012 (HIV-1)
[29] = target: HIV-1 Env of isolate MGRM-D-029 (subtype D), on pseudovirus (HIV-1)
[30] = target: HIV-1 Env of isolate SF162 (HIV-1) (UniProt P19550)
[31] = target: HIV-1 Env of isolate TRO.11 (HIV-1)

Sequence of 5345_I01 (PGT-137) (antibody) (VH): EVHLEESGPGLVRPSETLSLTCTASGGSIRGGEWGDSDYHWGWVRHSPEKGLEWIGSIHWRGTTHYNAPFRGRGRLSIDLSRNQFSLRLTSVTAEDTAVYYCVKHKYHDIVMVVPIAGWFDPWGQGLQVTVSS
Sequence of 5345_I01 (PGT-137) (antibody) (VL): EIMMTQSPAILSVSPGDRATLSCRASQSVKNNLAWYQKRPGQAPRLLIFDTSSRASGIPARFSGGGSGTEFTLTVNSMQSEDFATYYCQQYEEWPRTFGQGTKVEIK
Sequence of PGT-144 (4970_K22) (antibody) (VH): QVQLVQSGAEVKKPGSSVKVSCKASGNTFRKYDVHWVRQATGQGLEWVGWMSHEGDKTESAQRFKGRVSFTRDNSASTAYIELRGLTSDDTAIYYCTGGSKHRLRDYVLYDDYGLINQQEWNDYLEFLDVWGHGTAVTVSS
Sequence of PGT-144 (4970_K22) (antibody) (VL): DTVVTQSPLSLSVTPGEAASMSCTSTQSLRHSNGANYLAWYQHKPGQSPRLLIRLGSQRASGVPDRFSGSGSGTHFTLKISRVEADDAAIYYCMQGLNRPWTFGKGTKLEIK
Sequence of PGT-143 (4980_N08) (antibody) (VH): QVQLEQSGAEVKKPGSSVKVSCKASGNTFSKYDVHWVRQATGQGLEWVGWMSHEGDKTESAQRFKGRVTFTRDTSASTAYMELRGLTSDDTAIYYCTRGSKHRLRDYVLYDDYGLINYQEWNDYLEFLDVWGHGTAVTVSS
Sequence of PGT-143 (4980_N08) (antibody) (VL): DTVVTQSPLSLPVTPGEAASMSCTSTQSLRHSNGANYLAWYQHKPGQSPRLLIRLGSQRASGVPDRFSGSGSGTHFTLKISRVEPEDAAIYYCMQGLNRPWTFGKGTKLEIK
Sequence of PGT-142 (4995_E20) (antibody) (VH): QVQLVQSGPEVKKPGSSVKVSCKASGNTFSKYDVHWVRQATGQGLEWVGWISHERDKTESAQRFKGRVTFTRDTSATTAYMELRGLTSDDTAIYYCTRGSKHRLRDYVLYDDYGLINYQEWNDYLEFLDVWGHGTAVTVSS
Sequence of PGT-142 (4995_E20) (antibody) (VL): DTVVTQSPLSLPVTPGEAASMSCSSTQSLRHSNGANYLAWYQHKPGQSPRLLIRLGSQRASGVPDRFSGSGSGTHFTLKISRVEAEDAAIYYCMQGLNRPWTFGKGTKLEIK

Row | Substance | neutralization IC50 [1] | IC50 (µg/mL), pseudovirus neutralization [2] | IC50 (µg/mL), pseudovirus neutralization [3] | IC50 (µg/mL), pseudovirus neutralization [4] | IC50 (µg/mL) neutralization [5] | IC50 (µg/mL) neutralization [6] | Fold IC50 increase relative to wild-type [7] | Fold IC50 increase relative to wild-type [8] | Fold IC50 increase relative to wild-type [9] | IC50, pseudovirus neutralization [10] | IC50, pseudovirus neutralization [11] | IC50, pseudovirus neutralization [12] | IC50 (ug/ml), neutralizing activity [13] | IC50, pseudovirus neutralization [14] | neutralization IC50 [15] | neutralization IC50 [16] | other results
1 | 5141_B17 (PGT-126) (antibody) | > 50 µg/mL | 0.084 µg/mL | 0.039 µg/mL | 0.009 µg/mL | 2.12 µg/mL | > 50 µg/mL | 0.7 fold | 2.6 fold | 0.9 fold | 10 ng/mL | 0.108 µg/mL | 0.052 µg/mL | 0.0093 µg/mL | 0.017 µg/mL |  |  | 
2 | 5123_A06 (PGT-125) (antibody) | > 50 µg/mL | 2.84 µg/mL | 0.118 µg/mL | > 50 µg/mL | > 50 µg/mL | > 50 µg/mL | 1 fold | 1.3 fold | 1.1 fold | 7 ng/mL | 3.23 µg/mL | > 50 µg/mL | 0.0382 µg/mL | 0.042 µg/mL |  |  | neutralization IC50 [13]: 0.0382 µg/mL; neutralization IC80 [13]: 0.144 µg/mL; neutralization IC90 [13]: 0.339 µg/mL; neutralization IC95 [13]: 0.892 µg/mL
3 | PGT-143 (4980_N08) (antibody) |  |  |  |  |  |  |  |  |  |  |  |  |  |  | 2.97 µg/mL | > 50 µg/mL | 
4 | PGT-122 (antibody) |  |  |  |  |  |  |  |  |  |  |  |  |  |  |  |  | IC50 (µg/mL), pseudovirus neutralization [17]: 0.021 µg/mL
5 | PGT-142 (4995_E20) (antibody) |  |  |  |  |  |  |  |  |  |  |  |  |  |  | 2.81 µg/mL | > 50 µg/mL | 
6 | 5345_I01 (PGT-137) (antibody) |  |  |  |  |  |  |  |  |  |  |  |  |  |  |  |  | neutralization IC50 [17]: 3.52 µg/mL; IC50, single-round pseudovirus neutralization [18]: 18.5 µg/mL; IC50 (µg/mL) neutralization [19]: > 50 µg/mL; IC50 [20]: > 50 µg/mL; IC50, single-round pseudovirus neutralization [21]: > 50 µg/mL; IC50, single-round pseudovirus neutralization [22]: > 50 µg/mL; IC50, single-round pseudovirus neutralization [23]: > 50 µg/mL; IC50 [24]: 1.98 µg/mL; IC50 [25]: > 50 µg/mL; IC50 [26]: 0.23 µg/mL; IC50 [27]: > 50 µg/mL; IC50 [28]: > 50 µg/mL; IC50, pseudovirus neutralization [29]: > 50 µg/mL; IC50 [30]: 3.41 µg/mL; IC50 [31]: 9.35 µg/mL
7 | PGV04 (antibody) |  |  |  |  |  |  |  |  |  |  |  |  |  |  | 0.043 µg/mL | 0.333 µg/mL | IC50 (µg/mL), pseudovirus neutralization [28]: 0.125 µg/mL
8 | 4858_P08 (PGT-123) (antibody) | > 50 µg/mL | 0.147 µg/mL | 0.012 µg/mL | 0.007 µg/mL | 0.011 µg/mL | > 50 µg/mL | 0.5 fold | 1.2 fold | 2.4 fold | 8 ng/mL | > 50 µg/mL | > 50 µg/mL | 0.0047 µg/mL | 0.105 µg/mL |  |  | IC50, pseudovirus neutralization [13]: 4.7 ng/mL; IC80, pseudovirus neutralization [13]: 0.0175 µg/mL; IC90 (pseudovirus neutralization) [13]: 0.0381 µg/mL; IC95, pseudovirus neutralization [13]: 0.0791 µg/mL
9 | PGT-144 (4970_K22) (antibody) |  |  |  |  |  |  |  |  |  |  |  |  |  |  | > 50 µg/mL | > 50 µg/mL | 
10 | VRC01 (antibody) |  |  |  |  |  |  |  |  |  |  |  |  |  |  | 0.073 µg/mL | 0.548 µg/mL | IC50 [20]: 0.722 µg/mL; IC50, pseudovirus neutralization [28]: 0.216 µg/mL; neutralization IC50 [30]: 0.421 µg/mL; neutralization IC50 [31]: 0.186 µg/mL
